Results from patent publication US10189900B2, “Method for screening for autophagy activator or inhibitor” (KOREA FOOD RESEARCH INSTITUTE, priority 2014, dated 2019).

Key:
[1] = system: Ser30 of Beclin 1; assay: Beclin 1 Ser30 phosphorylation after compound treatment (immunoprecipitation of endogenous Beclin 1, phospho-Ser30 antibody); format: cell-based; details: HEK293T cells treated for 0, 15, 30, 60 and 120 min; endogenous Beclin 1 isolated by immunoprecipitation; rabbit phospho-Ser30 antibody
Protocol: For co-immunoprecipitation, cell extracts were prepared in a buffer containing 40 mM HEPES, pH 7.4, 120 mM NaCl, 1 mM EDTA, 50 mM NaF, 1.5 mM Na3VO4, 10 mM Mb-glycerophosphate, 1% triton X-100, and protease inhibitor (Roche). Immunoprecipitated proteins were washed four times with a lysis buffer, and loaded onto 8% Tris-glycine gels. The resultant proteins were transferred onto polyvinylidene difluoride (PVDF) membranes (Bio-Rad, USA), and detected with western blotting detection reagents (Perkin Elmer, USA).
(§1) HEK293T cells were treated with rapamycin for predetermined periods of time (0, 15, 30, 60, and 120 min). Endogenous Beclin 1 was isolated by immunoprecipitation. The phosphorylation of Ser30 was analyzed using rabbit antibodies developed in the present invention. It was verified that Ser30 of Beclin 1 was phosphorylated by rapamycin (FIG. 5). Rapamycin increases the activity of ULK1.
as §1, with “torin” for “rapamycin”, “6).” for “5). Rapamycin increases the activity of ULK1.”

[2] = biological target: myc-tagged Beclin 1, Q14457
[3] = biological target: Recombinant Beclin 1 isolated from E. coli, Q14457
Chain of Recombinant Beclin 1 isolated from E. coli, Q14457 (Q14457 whole entry, looked up): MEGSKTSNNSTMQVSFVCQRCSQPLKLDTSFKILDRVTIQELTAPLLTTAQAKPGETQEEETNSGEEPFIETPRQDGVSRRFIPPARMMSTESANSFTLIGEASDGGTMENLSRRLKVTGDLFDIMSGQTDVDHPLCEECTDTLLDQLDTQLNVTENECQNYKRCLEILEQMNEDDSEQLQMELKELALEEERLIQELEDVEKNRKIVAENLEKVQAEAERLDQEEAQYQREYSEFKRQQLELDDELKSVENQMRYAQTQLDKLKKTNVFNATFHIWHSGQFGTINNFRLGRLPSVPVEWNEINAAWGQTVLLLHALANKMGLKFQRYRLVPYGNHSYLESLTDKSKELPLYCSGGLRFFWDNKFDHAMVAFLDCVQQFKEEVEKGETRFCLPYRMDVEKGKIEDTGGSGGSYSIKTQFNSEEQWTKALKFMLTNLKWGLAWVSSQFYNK

Chain of myc-tagged Beclin 1, Q14457 (Q14457 whole entry, looked up): as above

| Molecule | band shift on SDS-PAGE (western blot) [2] | incorporation of 32P into Beclin 1 (in vitro kinase reaction, autoradiogram) [3] | further results |
| --- | --- | --- | --- |
| torin |  |  | phosphorylation of Ser30 of Beclin 1 [1]: phosphorylated |
| HA-tagged ULK1 wild type (protein) MEPGRGGTETVGKFEFSRKDLIGHGAFAVVFKGRHREKHDLEVAVKCINKKNLAKSQTLLGKEIKILKELKHENIVALYDFQEMANSVYLVMEYCNGGDLADYLHAMRTLSEDTIRLFLQQIAGAMRLLHSKGIIHRDLKPQNILLSNPAGRRANPNSIRVKIADFGFARYLQSNMMAATLCGSPMYMAPEVIMSQHYDGKADLWSIGTIVYQCLTGKAPFQASSPQDLRLFYEKNKTLVPTIPRETSAPLRQLLLALLQRNHKDRMDFDEFFHHPFLDASPSVRKSPPVPVPSYPSSGSGSSSSSSSTSHLASPPSLGEMQQLQKTLASPADTAGFLHSSRDSGGSKDSSCDTDDFVMVPAQFPGDLVAEAPSAKPPPDSLMCSGSSLVASAGLESHGRTPSPSPPCSSSPSPSGRAGPFSSSRCGASVPIPVPTQVQNYQRIERNLQSPTQFQTPRSSAIRRSGSTSPLGFARASPSPPAHAEHGGVLARKMSLGGGRPYTPSPQVGTIPERPGWSGTPSPQGAEMRGGRSPRPGSSAPEHSPRTSGLGCRLHSAPNLSDLHVVRPKLPKPPTDPLGAVFSPPQASPPQPSHGLQSCRNLRGSPKLPDFLQRNPLPPILGSPTKAVPSFDFPKTPSSQNLLALLARQGVVMTPPRNRTLPDLSEVGPFHGQPLGPGLRPGEDPKGPFGRSFSTSRLTDLLLKAAFGTQAPDPGSTESLQEKPMEIAPSAGFGGSLHPGARAGGTSSPSPVVFTVGSPPSGSTPPQGPRTRMFSAGPTGSASSSARHLVPGPCSEAPAPELPAPGHGCSFADPITANLEGAVTFEAPDLPEETLMEQEHTEILRGLRFTLLFVQHVLEIAALKGSASEAAGGPEYQLQESVVADQISLLSREWGFAEQLVLYLKVAELLSSGLQSAIDQIRAGKLCLSSTVKQVVRRLNELYKASVVSCQGLSLRLQRFFLDKQRLLDRIHSITAERLIFSHAVQMVQSAALDEMFQHREGCVPRYHKALLLLEGLQHMLSDQADIENVTKCKLCIERRLSALLTGICA | Beclin 1 co-expressed together with ULK1 showed band shift |  |  |
| HA-tagged ULK1 M92A KD (kinase dead) mutant (protein) MEPGRGGTETVGKFEFSRKDLIGHGAFAVVFKGRHREKHDLEVAVKCINKKNLAKSQTLLGKEIKILKELKHENIVALYDFQEMANSVYLVAEYCNGGDLADYLHAMRTLSEDTIRLFLQQIAGAMRLLHSKGIIHRDLKPQNILLSNPAGRRANPNSIRVKIADFGFARYLQSNMMAATLCGSPMYMAPEVIMSQHYDGKADLWSIGTIVYQCLTGKAPFQASSPQDLRLFYEKNKTLVPTIPRETSAPLRQLLLALLQRNHKDRMDFDEFFHHPFLDASPSVRKSPPVPVPSYPSSGSGSSSSSSSTSHLASPPSLGEMQQLQKTLASPADTAGFLHSSRDSGGSKDSSCDTDDFVMVPAQFPGDLVAEAPSAKPPPDSLMCSGSSLVASAGLESHGRTPSPSPPCSSSPSPSGRAGPFSSSRCGASVPIPVPTQVQNYQRIERNLQSPTQFQTPRSSAIRRSGSTSPLGFARASPSPPAHAEHGGVLARKMSLGGGRPYTPSPQVGTIPERPGWSGTPSPQGAEMRGGRSPRPGSSAPEHSPRTSGLGCRLHSAPNLSDLHVVRPKLPKPPTDPLGAVFSPPQASPPQPSHGLQSCRNLRGSPKLPDFLQRNPLPPILGSPTKAVPSFDFPKTPSSQNLLALLARQGVVMTPPRNRTLPDLSEVGPFHGQPLGPGLRPGEDPKGPFGRSFSTSRLTDLLLKAAFGTQAPDPGSTESLQEKPMEIAPSAGFGGSLHPGARAGGTSSPSPVVFTVGSPPSGSTPPQGPRTRMFSAGPTGSASSSARHLVPGPCSEAPAPELPAPGHGCSFADPITANLEGAVTFEAPDLPEETLMEQEHTEILRGLRFTLLFVQHVLEIAALKGSASEAAGGPEYQLQESVVADQISLLSREWGFAEQLVLYLKVAELLSSGLQSAIDQIRAGKLCLSSTVKQVVRRLNELYKASVVSCQGLSLRLQRFFLDKQRLLDRIHSITAERLIFSHAVQMVQSAALDEMFQHREGCVPRYHKALLLLEGLQHMLSDQADIENVTKCKLCIERRLSALLTGICA | Beclin 1 co-expressed together with ULK1 M92A KD showed no band shift |  |  |
| myc-tagged ULK1 wild type (protein) MEPGRGGTETVGKFEFSRKDLIGHGAFAVVFKGRHREKHDLEVAVKCINKKNLAKSQTLLGKEIKILKELKHENIVALYDFQEMANSVYLVMEYCNGGDLADYLHAMRTLSEDTIRLFLQQIAGAMRLLHSKGIIHRDLKPQNILLSNPAGRRANPNSIRVKIADFGFARYLQSNMMAATLCGSPMYMAPEVIMSQHYDGKADLWSIGTIVYQCLTGKAPFQASSPQDLRLFYEKNKTLVPTIPRETSAPLRQLLLALLQRNHKDRMDFDEFFHHPFLDASPSVRKSPPVPVPSYPSSGSGSSSSSSSTSHLASPPSLGEMQQLQKTLASPADTAGFLHSSRDSGGSKDSSCDTDDFVMVPAQFPGDLVAEAPSAKPPPDSLMCSGSSLVASAGLESHGRTPSPSPPCSSSPSPSGRAGPFSSSRCGASVPIPVPTQVQNYQRIERNLQSPTQFQTPRSSAIRRSGSTSPLGFARASPSPPAHAEHGGVLARKMSLGGGRPYTPSPQVGTIPERPGWSGTPSPQGAEMRGGRSPRPGSSAPEHSPRTSGLGCRLHSAPNLSDLHVVRPKLPKPPTDPLGAVFSPPQASPPQPSHGLQSCRNLRGSPKLPDFLQRNPLPPILGSPTKAVPSFDFPKTPSSQNLLALLARQGVVMTPPRNRTLPDLSEVGPFHGQPLGPGLRPGEDPKGPFGRSFSTSRLTDLLLKAAFGTQAPDPGSTESLQEKPMEIAPSAGFGGSLHPGARAGGTSSPSPVVFTVGSPPSGSTPPQGPRTRMFSAGPTGSASSSARHLVPGPCSEAPAPELPAPGHGCSFADPITANLEGAVTFEAPDLPEETLMEQEHTEILRGLRFTLLFVQHVLEIAALKGSASEAAGGPEYQLQESVVADQISLLSREWGFAEQLVLYLKVAELLSSGLQSAIDQIRAGKLCLSSTVKQVVRRLNELYKASVVSCQGLSLRLQRFFLDKQRLLDRIHSITAERLIFSHAVQMVQSAALDEMFQHREGCVPRYHKALLLLEGLQHMLSDQADIENVTKCKLCIERRLSALLTGICA |  | The ULK1 wild type phosphorylates Beclin 1 |  |
| myc-tagged ULK1 KD (M92) mutant (protein) MEPGRGGTETVGKFEFSRKDLIGHGAFAVVFKGRHREKHDLEVAVKCINKKNLAKSQTLLGKEIKILKELKHENIVALYDFQEMANSVYLVAEYCNGGDLADYLHAMRTLSEDTIRLFLQQIAGAMRLLHSKGIIHRDLKPQNILLSNPAGRRANPNSIRVKIADFGFARYLQSNMMAATLCGSPMYMAPEVIMSQHYDGKADLWSIGTIVYQCLTGKAPFQASSPQDLRLFYEKNKTLVPTIPRETSAPLRQLLLALLQRNHKDRMDFDEFFHHPFLDASPSVRKSPPVPVPSYPSSGSGSSSSSSSTSHLASPPSLGEMQQLQKTLASPADTAGFLHSSRDSGGSKDSSCDTDDFVMVPAQFPGDLVAEAPSAKPPPDSLMCSGSSLVASAGLESHGRTPSPSPPCSSSPSPSGRAGPFSSSRCGASVPIPVPTQVQNYQRIERNLQSPTQFQTPRSSAIRRSGSTSPLGFARASPSPPAHAEHGGVLARKMSLGGGRPYTPSPQVGTIPERPGWSGTPSPQGAEMRGGRSPRPGSSAPEHSPRTSGLGCRLHSAPNLSDLHVVRPKLPKPPTDPLGAVFSPPQASPPQPSHGLQSCRNLRGSPKLPDFLQRNPLPPILGSPTKAVPSFDFPKTPSSQNLLALLARQGVVMTPPRNRTLPDLSEVGPFHGQPLGPGLRPGEDPKGPFGRSFSTSRLTDLLLKAAFGTQAPDPGSTESLQEKPMEIAPSAGFGGSLHPGARAGGTSSPSPVVFTVGSPPSGSTPPQGPRTRMFSAGPTGSASSSARHLVPGPCSEAPAPELPAPGHGCSFADPITANLEGAVTFEAPDLPEETLMEQEHTEILRGLRFTLLFVQHVLEIAALKGSASEAAGGPEYQLQESVVADQISLLSREWGFAEQLVLYLKVAELLSSGLQSAIDQIRAGKLCLSSTVKQVVRRLNELYKASVVSCQGLSLRLQRFFLDKQRLLDRIHSITAERLIFSHAVQMVQSAALDEMFQHREGCVPRYHKALLLLEGLQHMLSDQADIENVTKCKLCIERRLSALLTGICA |  | KD mutant-added Beclin 1 was not phosphorylated |  |
